The values that follow come from patent US20200283478A1 (Genentech, published 2020).

Bridge positions count the residues as written; N and C are the ends. Square brackets hold non-standard residues; d marks the D form. Primed or numbered codes have the meaning given here. Ends that are not written are not given here. hArg = N=C(N)NCCCC[C@H](N)C(=O)O; Hyp′ = 3-hydroxyproline

The target in test [1] is T1, PCSK9Δhelix (human, Chemically biotinylated in the phage ELISAs; the site is not given.).
T1 construct: construct M1-Q692 with engineered TEV site, cleaved by TEV; also called His-PCSK9Δhelix; open groove PCSK9Δhelix
The experiment in a line: phage competition ELISA: synthetic peptide against its phage-displayed counterpart. On the technique in general: In an ELISA, binding on a coated surface is turned into a signal by an enzyme label.

Test [2] has as its target T1, PCSK9Δhelix. The experiment in a line: Ab20 TR-FRET competition and SPR. Background: In TR-FRET formats the signal depends on donor and acceptor labels being close together.
Test [3] deals with T2, proprotein convertase subtilisin/kexin type 9 (PCSK9) (human, UniProt Q8NBP7 31-692). In words: cell-based or functional assay.
The target of test [4] is T1, PCSK9Δhelix. In words: phage competition ELISA against phage-displayed Pep2-8 (Φpep2-8).
Test [5] deals with T1, PCSK9Δhelix. The experiment in a line: phage competition ELISA against phage-displayed K9gvpep4 (ΦK9gvpep4).
The target of test [6] is T3, PCSK9 (proprotein convertase subtilisin/kexin type 9), His-tagged, full-length (human, UniProt Q8NBP7 31-692).
T3 construct: Captured by the His tag (SPR Methods 1 and 2), amine-coupled (Method 3), or His-tagged in TR-FRET; also called His-PCSK9
The experiment in a line: TR-FRET competition; competitor EGF(A)-Fc binding to His-PCSK9.

The target in test [7] is T4, PCSK9Δhelix (human, UniProt Q8NBP7 31-152; Q8NBP7 168-692).
T4 construct: Made by TEV cleavage of human PCSK9 M1-Q692 with an engineered TEV site; The new N-terminus of the catalytic domain is S-A168; also called His-PCSK9Δhelix; PCSK9 lacking the P' helix
In words: TR-FRET competition; competitor Ab20 binding to His-PCSK9Δhelix.

Test [8] has as its target T3, PCSK9 (proprotein convertase …). The experiment in a line: SPR, Method 2 (Biacore T100, NTA capture, single cycle kinetics).
For test [9], the target named is T4, PCSK9Δhelix. Described as above.
For test [10], the target named is T1, PCSK9Δhelix. In words: SPR.
The target of test [11] is T2, proprotein convertase subtilisin/kexin …. The experiment in a line: phage spot ELISA; first of two rows with this extension.
Test [12] has as its target T1, PCSK9Δhelix. The test is described as above.
Test [13] has as its target T2, proprotein convertase subtilisin/kexin …. In words: phage spot ELISA; second of two rows with this extension.
The target in test [14] is T1, PCSK9Δhelix. The description is as above.
The target in test [15] is T2, proprotein convertase subtilisin/kexin …. In words: SPR. For orientation: Surface plasmon resonance follows binding to a sensor surface in real time, without labels.
The target is the same in test [16]. In words: TR-FRET competition (Table 11).
In test [17] the target is T5, His-tagged, full-length human PCSK9 (proprotein convertase subtilisin/kexin type 9) (human, UniProt A8T644 31-152; Q8NBP7 153-692).
T5 construct: also called His-PCSK9; C-terminal (His)8-tagged PCSK9
The experiment in a line: TR-FRET competition; His-PCSK9 with EGF(A)-Fc as competitor ligand.

The target in test [18] is T6, PCSK9Δhelix (human PCSK9 lacking the P' helix, His-tagged) (human, UniProt Q8NBP7 31-152; Q8NBP7 168-692).
T6 construct: Construct M1-Q692 with an engineered TEV site (Y166 and R167 deleted, ENLYFQS inserted between R165 and A168); also called His-PCSK9Δhelix; C-terminal (His)8-tagged PCSK9Δhelix
In words: TR-FRET competition; His-PCSK9Δhelix with Ab20 as competitor ligand.

T1 sequence (prodomain, as listed by the source mutant limits assumed, chain 1 of 2): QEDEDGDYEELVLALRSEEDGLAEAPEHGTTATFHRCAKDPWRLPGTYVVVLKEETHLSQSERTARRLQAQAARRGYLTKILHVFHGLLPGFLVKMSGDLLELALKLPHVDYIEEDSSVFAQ
T1 sequence (chain, as listed by the source mutant limits assumed, chain 2 of 2): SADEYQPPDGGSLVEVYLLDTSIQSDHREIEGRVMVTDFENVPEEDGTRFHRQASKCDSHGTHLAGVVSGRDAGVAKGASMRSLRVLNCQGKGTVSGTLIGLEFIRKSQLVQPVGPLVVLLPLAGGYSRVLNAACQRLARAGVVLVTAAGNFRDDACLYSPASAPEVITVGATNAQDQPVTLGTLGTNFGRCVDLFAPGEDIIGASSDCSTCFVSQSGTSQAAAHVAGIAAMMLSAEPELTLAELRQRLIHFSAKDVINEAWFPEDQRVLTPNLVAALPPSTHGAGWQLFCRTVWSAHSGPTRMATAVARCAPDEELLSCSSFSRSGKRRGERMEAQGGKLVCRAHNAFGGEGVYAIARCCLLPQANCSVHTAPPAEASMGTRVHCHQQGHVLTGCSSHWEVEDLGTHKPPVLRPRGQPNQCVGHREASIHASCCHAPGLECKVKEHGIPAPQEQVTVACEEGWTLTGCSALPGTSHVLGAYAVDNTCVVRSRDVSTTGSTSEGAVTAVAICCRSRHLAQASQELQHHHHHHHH
T4 sequence (Q8NBP7 31-152, stated change not applied, chain 1 of 2): as the sequence (prodomain, as listed by the source mutant limits assumed, chain 1 of 2) above
T4 sequence (Q8NBP7 other isoform, or with tags, fused parts or gaps mutant, chain 2 of 2): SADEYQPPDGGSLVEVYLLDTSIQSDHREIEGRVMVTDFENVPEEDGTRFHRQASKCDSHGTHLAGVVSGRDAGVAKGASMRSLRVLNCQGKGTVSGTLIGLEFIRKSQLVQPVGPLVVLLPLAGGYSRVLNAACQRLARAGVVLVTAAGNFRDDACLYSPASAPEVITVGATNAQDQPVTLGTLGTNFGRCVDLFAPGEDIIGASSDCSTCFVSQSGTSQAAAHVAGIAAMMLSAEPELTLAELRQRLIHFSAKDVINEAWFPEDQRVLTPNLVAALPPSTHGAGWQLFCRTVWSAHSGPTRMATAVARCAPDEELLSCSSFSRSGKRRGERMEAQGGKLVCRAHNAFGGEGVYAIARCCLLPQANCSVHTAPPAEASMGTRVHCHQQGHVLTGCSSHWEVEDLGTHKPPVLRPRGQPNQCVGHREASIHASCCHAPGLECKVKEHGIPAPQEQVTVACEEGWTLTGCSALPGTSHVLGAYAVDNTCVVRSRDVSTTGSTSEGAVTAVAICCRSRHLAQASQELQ
T3 sequence (Q8NBP7 31-692 limits assumed): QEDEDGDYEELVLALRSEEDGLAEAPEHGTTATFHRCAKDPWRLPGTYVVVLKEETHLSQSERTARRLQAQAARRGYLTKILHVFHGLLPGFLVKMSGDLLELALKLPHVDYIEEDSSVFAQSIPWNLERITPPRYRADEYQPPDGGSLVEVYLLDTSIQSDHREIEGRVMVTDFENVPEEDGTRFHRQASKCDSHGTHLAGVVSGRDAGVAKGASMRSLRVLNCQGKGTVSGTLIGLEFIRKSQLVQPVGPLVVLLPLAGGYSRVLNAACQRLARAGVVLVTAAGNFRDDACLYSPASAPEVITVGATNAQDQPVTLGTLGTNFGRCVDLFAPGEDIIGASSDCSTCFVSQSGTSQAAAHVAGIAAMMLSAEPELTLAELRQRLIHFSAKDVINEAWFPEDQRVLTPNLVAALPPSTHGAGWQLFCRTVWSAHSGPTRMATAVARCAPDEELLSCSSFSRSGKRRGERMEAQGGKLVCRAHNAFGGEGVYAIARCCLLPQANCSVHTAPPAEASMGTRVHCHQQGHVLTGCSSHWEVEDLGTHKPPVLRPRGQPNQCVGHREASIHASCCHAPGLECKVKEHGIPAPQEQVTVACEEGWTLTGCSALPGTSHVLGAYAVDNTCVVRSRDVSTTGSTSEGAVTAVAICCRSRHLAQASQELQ
T2 sequence (Q8NBP7 other isoform, or with tags, fused parts or gaps limits assumed): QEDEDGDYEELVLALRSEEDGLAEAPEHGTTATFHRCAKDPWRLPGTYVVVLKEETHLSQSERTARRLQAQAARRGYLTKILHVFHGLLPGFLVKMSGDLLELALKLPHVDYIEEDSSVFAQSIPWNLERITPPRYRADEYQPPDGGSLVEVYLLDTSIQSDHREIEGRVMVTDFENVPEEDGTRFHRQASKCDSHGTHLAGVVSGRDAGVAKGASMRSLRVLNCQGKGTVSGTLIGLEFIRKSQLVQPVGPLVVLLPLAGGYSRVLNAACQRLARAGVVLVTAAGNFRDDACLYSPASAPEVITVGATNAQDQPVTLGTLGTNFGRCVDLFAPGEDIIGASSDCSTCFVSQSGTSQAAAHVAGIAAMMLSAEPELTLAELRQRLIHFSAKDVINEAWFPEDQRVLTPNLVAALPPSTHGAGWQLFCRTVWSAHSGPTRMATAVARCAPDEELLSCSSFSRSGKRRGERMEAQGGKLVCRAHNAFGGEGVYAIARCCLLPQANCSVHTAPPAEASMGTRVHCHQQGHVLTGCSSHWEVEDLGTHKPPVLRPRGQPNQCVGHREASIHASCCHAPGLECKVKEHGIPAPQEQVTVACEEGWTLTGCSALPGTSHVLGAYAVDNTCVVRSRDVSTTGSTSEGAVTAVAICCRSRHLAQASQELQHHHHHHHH
T5 sequence (A8T644 31-152, chain 1 of 2): as the sequence (prodomain, as listed by the source mutant limits assumed, chain 1 of 2) above
T5 sequence (A8T644 other isoform, or with tags, fused parts or gaps, chain 2 of 2): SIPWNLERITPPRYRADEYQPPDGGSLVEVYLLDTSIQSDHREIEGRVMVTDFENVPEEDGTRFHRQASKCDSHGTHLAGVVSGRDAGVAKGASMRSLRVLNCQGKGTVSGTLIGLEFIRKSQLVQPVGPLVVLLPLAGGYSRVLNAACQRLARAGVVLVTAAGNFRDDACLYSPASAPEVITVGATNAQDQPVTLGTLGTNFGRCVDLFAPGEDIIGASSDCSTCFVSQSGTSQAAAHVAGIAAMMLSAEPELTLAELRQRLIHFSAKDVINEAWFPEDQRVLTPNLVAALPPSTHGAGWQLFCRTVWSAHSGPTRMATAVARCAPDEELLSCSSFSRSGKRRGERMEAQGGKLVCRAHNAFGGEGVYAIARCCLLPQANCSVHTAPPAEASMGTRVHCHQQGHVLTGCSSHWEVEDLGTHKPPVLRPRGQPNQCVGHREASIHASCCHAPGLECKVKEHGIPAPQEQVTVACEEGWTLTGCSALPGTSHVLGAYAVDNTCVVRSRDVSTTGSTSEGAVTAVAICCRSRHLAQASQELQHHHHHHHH
T6 sequence (Q8NBP7 31-152, stated change not applied, chain 1 of 2): as the sequence (prodomain, as listed by the source mutant limits assumed, chain 1 of 2) above
T6 sequence (Q8NBP7 other isoform, or with tags, fused parts or gaps mutant, chain 2 of 2): as the sequence (chain, as listed by the source mutant limits assumed, chain 2 of 2) above

B1: K9gvpep7 (peptide)
peptide: SGDLMPWNLVRIGLLR
notes: synthetic; Compound 20 = Pep2-8_K9gvpep7
In the case of B1, the concentration for half-maximal inhibition (IC50) – broadly, the midpoint of a concentration-inhibition curve – in test [1] turned out to be 914 nM.
Turning to Ac-WNLVRIGLLR-NH2 [Compound 53], in test [2], the “fold reduction of binding affinity on elimination of Pro4” value was determined as 10 fold.
Consider Ac-TVFTSWEEYLDWVGSGCRLPWNLQRIGLPC-NH2 (disulfide 17-30 (inferred), also called Pep2-8p4; Pep2-8_K9gvpep4) [Compound 19], for which the “concentration restoring LDLR levels on HepG2 cells to 50% (EC50)” value in test [3] was ~500 nM. Besides, the figures for the IC50 in test [4] and in test [5] were 2.92 nM and 5.65 nM, respectively.

B2: Compound 2 (peptide)
peptide: Ac-TVFTSWEEYLDWVGSGCWNLKRIGSQGC-NH2
modifications: disulfide 17-28
SMILES: CC[C@H](C)[C@@H]1NC(=O)[C@H](CCCNC(=N)N)NC(=O)[C@H](CCCCN)NC(=O)[C@H](CC(C)C)NC(=O)[C@H](CC(N)=O)NC(=O)[C@H](Cc2c[nH]c3ccccc23)NC(=O)[C@@H](NC(=O)CNC(=O)[C@H](CO)NC(=O)CNC(=O)[C@@H](NC(=O)[C@H](Cc2c[nH]c3ccccc23)NC(=O)[C@H](CC(=O)O)NC(=O)[C@H](CC(C)C)NC(=O)[C@H](Cc2ccc(O)cc2)NC(=O)[C@H](CCC(=O)O)NC(=O)[C@H](CCC(=O)O)NC(=O)[C@H](Cc2c[nH]c3ccccc23)NC(=O)[C@H](CO)NC(=O)[C@@H](NC(=O)[C@H](Cc2ccccc2)NC(=O)[C@@H](NC(=O)[C@@H](NC(C)=O)[C@@H](C)O)C(C)C)[C@@H](C)O)C(C)C)CSSC[C@@H](C(N)=O)NC(=O)CNC(=O)[C@H](CCC(N)=O)NC(=O)[C@H](CO)NC(=O)CNC1=O
notes: Disulfide C17-C28
For B2, the IC50 in test [6] is 110 nM; in test [7] it was 4 nM. For the same molecule, the Kd (usually the constant that tells how readily two partners part at equilibrium) worked out at 30.3 nM in test [8] and 1.87 nM in test [9].

B3: Compound 23 (peptide)
peptide: Ac-SPCRVGYTPC-NH2
modifications: disulfide 3-10
SMILES: CC(=O)N[C@@H](CO)C(=O)N1CCC[C@H]1C(=O)N[C@H]1CSSC[C@@H](C(N)=O)NC(=O)[C@@H]2CCCN2C(=O)[C@H]([C@@H](C)O)NC(=O)[C@H](Cc2ccc(O)cc2)NC(=O)CNC(=O)[C@H](C(C)C)NC(=O)[C@H](CCCNC(=N)N)NC1=O
notes: Two Cys
As for B3, the figures for the Kd in [8] and in test [9] were 5740 nM and 754 nM, respectively.
On to Ac-WNLV[hArg]IGLLR-NH2 [Compound 192], for which the “fold improvement of binding affinity by homo-arginine substitution (against Compound 53)” value in test [10] amounted to 14 fold.
For the molecule TAFTSWEEYLDWVGSGVLWNHSRI [SEQ ID NO 308], the ELISA in test [11] came out at 2.74; in test [12], 2.82; in test [13], 3; in test [14], 2.91. Also, the s/n ratio worked out at 24.9 in test [11], 26.4 in test [12], 29.7 in test [13] and 31.3 in [14].

B4: Compound 228 (peptide)
peptide: Ac-SFAFPGWNLV[hArg]IGLLR-NH2
SMILES: CC[C@H](C)[C@H](NC(=O)[C@H](CCCCNC(=N)N)NC(=O)[C@@H](NC(=O)[C@H](CC(C)C)NC(=O)[C@H](CC(N)=O)NC(=O)[C@H](Cc1c[nH]c2ccccc12)NC(=O)CNC(=O)[C@@H]1CCCN1C(=O)[C@H](Cc1ccccc1)NC(=O)[C@H](C)NC(=O)[C@H](Cc1ccccc1)NC(=O)[C@H](CO)NC(C)=O)C(C)C)C(=O)NCC(=O)N[C@@H](CC(C)C)C(=O)N[C@@H](CC(C)C)C(=O)N[C@@H](CCCNC(=N)N)C(N)=O
In turn, B4 returned a Kd in [15] of 2800 nM.

B5: Compound 227 (peptide)
peptide: Ac-ESFPGWNLV[hArg]IGLLR-NH2
SMILES: CC[C@H](C)[C@H](NC(=O)[C@H](CCCCNC(=N)N)NC(=O)[C@@H](NC(=O)[C@H](CC(C)C)NC(=O)[C@H](CC(N)=O)NC(=O)[C@H](Cc1c[nH]c2ccccc12)NC(=O)CNC(=O)[C@@H]1CCCN1C(=O)[C@H](Cc1ccccc1)NC(=O)[C@H](CO)NC(=O)[C@H](CCC(=O)O)NC(C)=O)C(C)C)C(=O)NCC(=O)N[C@@H](CC(C)C)C(=O)N[C@@H](CC(C)C)C(=O)N[C@@H](CCCNC(=N)N)C(N)=O
Take B5: the “fold lower inhibitory activity against Compound 229” value in [16] was ~3 fold.
On to Ac-TVFTSWEEYLDWVGSGDLMPWNLVRIGLLR-NH2 (also called Pep2-8p7; Pep2-8_K9gvpep7) [Compound 20], for which the values for the half-maximal inhibitory concentration (IC50) in test [4] and in [5] were 1.75 nM and 5.99 nM, respectively.

B6: K9gvpep4 (peptide)
peptide: SGCRLPWNLQRIGLPC
modifications: not fully specified (bridges); cysteine pairing not given here
notes: synthetic; Compound 19 = Pep2-8_K9gvpep4, the two N-terminal residues of K9gvpep4 being the SG of the GSG linker
In test [1], B6 had a 50% inhibitory concentration (IC50) of 544 nM.
Regarding Ac-SGCFI[Hyp′]WNLQRIGLLC-NH2 (disulfide 3-16 (inferred), Has two Cys (positions 3 and 16)) [Compound 242: Ac-SG-CFI(Hyp)WNLQRIGLLC-NH2], the IC50 is ≥ 50000 nM in test [17] and 31000 nM in [18].
